The values below come from publication PMC7936274.

For this data set, the target named is T1, OapB (Bacillus halodurans, UniProt Q9KGD7 5-102).
T1 sequence: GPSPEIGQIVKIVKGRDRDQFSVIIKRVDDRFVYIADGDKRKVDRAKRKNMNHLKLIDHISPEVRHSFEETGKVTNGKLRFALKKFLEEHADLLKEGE
Briefly: X-ray crystallography.

B1: OLE* (P12.2, P13, P14, P15 minimized OLE RNA) (structured_RNA)
RNA: GGCCAGUCUGGCGUUUGGUGACAGCGCCAAGUUCUUCGGAAUUGGGAAAUCCUACUGGCC
On to B1, for which the binding result is given as “binds”.
